B1: library; numbered along this chain (parent)
chain: MATDAALRRLLRLHRTEIAVAVDSAFPLLHALADHDVVPEDKFQETLHLKEKEGCPQAFHALLSWLLTQDSTAILDFWRVLFKDYNLERYGRLQPILDSFPKDVDLSQPRKGRKPPAVPKALVPPPRLPTKRKASEEARAAAPAALTPRGTASPGSQLKAKPPKKPESSAEQQRLPLGNGIQTMSASVQRAVAMSSGDVPGARGAVEGILIQQVFESGGSKKCIQVGGEFYTPSKFEDSGSGKNKARSSSGPKPLVRAKGAQGAAPGGGEARLGQQGSVPAPLALPSDPQLHQKNEDECAVCRDGGELICCDGCPRAFHLACLSPPLREIPSGTWRCSSCLQATVQEVQPRAEEPRPQEPPVETPLPPGLRSAGEEVRGPPGEPLAGMDTTLVYKHLPAPPSAAPLPGLDSSALHPLLCVGPEGQQNLAPGARCGVCGDGTDVLRCTHCAAAFHWRCHFPAGTSRPGTGLRCRSCSGDVTPAPVEGVLAPSPARLAPGPAKDDTASHEPALHRDDLESLLSEHTFDGILQWAIQSMARPAAPFPS

Variants of: B1
Test: AIRE transcriptional activation functional score (insulin promoter-GFP; nonsense median 0, synonymous median 1) (normalised score); higher = higher AIRE activity (more reporter activation)
Conditions: with insulin promoter-GFP reporter in HEK293
Outline: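 The functional score compares variant enrichment between select and non-select populations after subtracting wild type. To obtain it, codon-optimized AIRE NNN-codon libraries spanning three regions were placed by Bxb1 recombinase into Flp-In T-REx HEK293 landing-pad cells with an insulin core promoter-GFP reporter. Cells with the top 10% GFP and unselected integrants were tile-sequenced after mCherry+, BFP− integrants had been sorted at day 7 and grown 7 more days. Only variants with 10 counts per million in non-select were kept, rescaled to nonsense median 0 and synonymous median 1, and averaged across biological replicates.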

AIRE transcriptional activation functional score: each site, then its substitutions
A432: E 1.16 | H 0.437 | T 0.81 | R 0.993 | I 0.534 | L 0.822 | S 0.578 | V 0.872 | W 1.88 | D 0.806 | N -0.334 | Y 1.28 | C 1.2 | Q 0.748 | P 0.463 | M 0.0975 | K 0.599 | F 1.06 | G 1.22
G424: Y 0.738 | W 1.26 | F 1.64 | P 1.24 | L 1.08 | V 1.25 | N 0.684 | E 0.64 | T 1.59 | R 1.03 | C 1.41 | K 1.04 | S 1.19 | I -0.488 | H 0.363 | A 1.25 | Q 1.49 | D 1 | M 0.308
C419: V 1.22 | S 0.615 | E 1.04 | Q 1.3 | L 1.33 | R 0.836 | N 0.258 | G 0.96 | I 0.681 | P 1.24 | T 1.2 | F 1.64 | D 0.584 | H 0.558 | W 1.21 | A 0.69 | K 1.17
L417: K 0.833 | V 0.708 | W 1.3 | S 0.626 | A 0.892 | I 0.855 | H 0.632 | C 1.24 | N 1.05 | D 1.12 | Y 1.21 | F 1.3 | E 0.739 | P 0.784 | R 0.707 | T 0.966 | Q 1.07 | G 0.679
H415: P 1.11 | N 1.22 | M -0.327 | W 0.671 | R 0.811 | S 0.782 | T 0.92 | V 1.06 | Y 1.42 | Q 0.783
P416: M 1.55 | Q 1.49 | W 1.5 | N 1.21 | C 1.46 | K 0.665 | H -0.0276 | S 1.09 | L 0.688 | Y 0.419 | A 0.819 | I 0.0784 | G 0.937 | R 0.68 | V 0.526 | T 0.937 | F 0.451 | D -0.251
V420: I 0.811 | F 1.03 | G 0.846 | M 1.43 | A 1.04 | W 1.35 | E 0.728 | D 0.683 | S 1.07 | L 0.722 | R 1.03 | Q -0.123 | K 0.606 | T 0.608 | H 0.593 | C 1.11 | P 1.01 | Y 0.639
P422: G 1.53 | T 0.528 | F 0.774 | Q 0.91 | D 1.69 | L 1.3 | W 1.69 | C 1.28 | E 0.766 | R 0.868 | H 0.986 | N 1.18 | I 1.26 | V 0.479 | A 0.724 | Y 1.42 | S 0.814
L428: R 0.941 | F 1.09 | W 1.31 | A 1.08 | G 0.959 | E 0.885 | M 1.32 | Q 1.01 | H 1.48 | S 1.15 | N 1.08 | T 0.817 | D 0.545 | P 0.955 | C 0.816 | I 1.22 | Y 1.05 | K 0.817
Q426: M 1.34 | L 1.06 | I 0.87 | E 1.07 | V 1.29 | N 1.23 | Y 1.54 | F 1.34 | H 1.18 | S 0.831 | G 0.866 | K 1.16 | T 1.17 | W 1.64 | D 0.796 | A -0.467 | R 0.722 | P 1.09 | C 1.4
Q425: W 1.28 | S 1.06 | P 1.21 | Y 1.28 | C 0.714 | F 1.13 | L 1.18 | K 0.902 | M 0.974 | D 0.431 | I 1.07 | A 0.368 | H 1.3 | E 0.587 | V 0.734 | R 0.94 | T 0.973 | G 1.04 | N 0.869
A429: I 1.14 | V 1.01 | W 1.2 | G 0.724 | R 0.843 | D 1.07 | P 0.614 | Q 1.32 | Y 0.892 | H 1.47 | S 1.09 | N 1.09 | E 0.833 | C 0.771 | T 1.12 | F 1.34 | L 1.06 | K 0.0334
G421: A 0.875 | D 1.83 | Y -0.246 | N 0.869 | F 1.33 | V 0.933 | M 0.931 | H -0.132 | T 0.472 | S 0.74 | C 1.58 | R 0.926 | P 1.4 | L 0.327 | K 0.558 | W 1.43 | E 1.65
N427: T 1.07 | L 1.51 | K 0.842 | M 1.81 | E 1.12 | H 0.904 | D 1.07 | R 0.362 | F 1.42 | P 1.18 | S 1.1 | A 1.33 | C 1.1 | Q 0.539 | I 1 | V 1.06 | G 1 | Y 1.47 | W 1.3
P430: H 1.32 | I 1.28 | S 0.992 | N 1.14 | L 1.18 | C 0.92 | D 0.951 | V 0.632 | F 1.69 | T 0.77 | Q 1.01 | W 1.3 | A 0.806 | E 1.01 | R 0.778 | G 1.21 | Y 1.03 | K 0.999
E423: K 0.795 | H 1.2 | D 1.25 | C 0.459 | P 0.817 | M 0.551 | Q 0.981 | G 1.34 | S 1.27 | Y 1.38 | L 1.28 | F 1.02 | T 0.737 | I 1.05 | R 0.409 | V 1.2 | A 1.2
G431: Y 0.576 | E 0.793 | I 1.32 | D 0.852 | A 1.23 | H 1.39 | S 0.927 | P 0.983 | W 1.29 | N 0.881 | F 1.14 | R 0.579 | C 0.854 | K 0.71 | M 0.776 | L 0.794 | V 1.13 | Q 0.86 | T 1.21
L418: D 0.816 | Y 1.42 | P 0.93 | A 1.06 | H 0.443 | E 0.507 | F 1.42 | G 1 | S 0.85 | Q 1.28 | I 0.6 | K 0.4 | C 1.16 | T 0.829 | M 0.207 | V 1.04 | R 0.67 | N 1.02
R433: T 0.808 | P 0.565 | G 0.748 | C 0.922 | D 0.895 | L 0.786 | F 0.678 | S 0.734 | A 0.402 | I 0.308 | E 1.39 | H 0.569 | K 1.03 | N 1.15 | Q 1.13 | M 0.755

Reference: the supplement of paper PMC12667976
